Data: patent publication US6904369

target: Kit, the receptor for SCF (UniProt P10721); assay: cell-based or functional assay
Sequence (P10721 26-976 limits assumed): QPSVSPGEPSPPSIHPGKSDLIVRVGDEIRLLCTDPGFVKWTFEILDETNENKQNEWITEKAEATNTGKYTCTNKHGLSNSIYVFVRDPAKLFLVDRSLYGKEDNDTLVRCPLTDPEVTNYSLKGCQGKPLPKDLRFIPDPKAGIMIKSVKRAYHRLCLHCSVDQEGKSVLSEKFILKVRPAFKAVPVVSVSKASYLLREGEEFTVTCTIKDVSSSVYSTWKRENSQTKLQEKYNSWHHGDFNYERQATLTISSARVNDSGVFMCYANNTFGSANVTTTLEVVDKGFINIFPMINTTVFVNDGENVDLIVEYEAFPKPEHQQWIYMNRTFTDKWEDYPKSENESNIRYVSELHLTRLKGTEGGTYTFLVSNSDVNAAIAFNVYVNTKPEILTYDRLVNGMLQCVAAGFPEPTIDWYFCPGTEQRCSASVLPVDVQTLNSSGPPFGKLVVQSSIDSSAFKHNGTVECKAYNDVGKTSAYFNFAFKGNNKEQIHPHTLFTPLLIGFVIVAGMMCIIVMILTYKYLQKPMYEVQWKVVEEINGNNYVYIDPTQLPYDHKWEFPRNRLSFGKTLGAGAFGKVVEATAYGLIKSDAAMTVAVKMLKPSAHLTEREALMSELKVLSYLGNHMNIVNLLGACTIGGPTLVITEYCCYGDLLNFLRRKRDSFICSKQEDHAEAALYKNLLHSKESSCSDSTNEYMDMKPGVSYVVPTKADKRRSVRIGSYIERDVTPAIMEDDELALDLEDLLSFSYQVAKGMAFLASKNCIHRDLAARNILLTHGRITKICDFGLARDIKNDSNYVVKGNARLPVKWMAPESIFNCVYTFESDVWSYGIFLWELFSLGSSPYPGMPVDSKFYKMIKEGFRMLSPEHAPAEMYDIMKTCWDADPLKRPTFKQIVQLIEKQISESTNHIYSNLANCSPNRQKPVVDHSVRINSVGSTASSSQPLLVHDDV

Biological Activity (Approximate, compared to wild type SCF) (fold lower than wild type SCF)	Substance
100	SCF(D25C) (from UniProt P21583 26-166) (ligand)
7	SCF(K62C) (from UniProt P21583 26-166) (ligand)
3	SCF(K78N, N81K) (from UniProt P21583 26-166) (ligand)
10	SCF(R117A, I118A) (from UniProt P21583 26-166) (ligand)
